From patent US20210309747A1 (I MAB BIOPHARMA US, published 2021)

Tests used:
[1] = molecular target: T1, human PD-L1 on Raji cells (human, UniProt Q9NZQ7 19-290); assay: flow cytometry blocking assay on Raji-PDL1 cells; blocked ligand: biotinylated Avi- and His-tag human PD1 protein at 3 ug/mL, Streptavidin-PE, MFI
T1 construct: whole, on cells; also called Raji-PD-L1 cells; Raji-PDL1 cells
Protocol: Raji cells over-expressing human PDL1 were seeded into the 96 well plate at a concentration of 1×10⁵ cells per well. […] Fluorescence was measured by flow cytometry and analyzed by Flowjo software to determine the mean fluorescence intensities (MFI).

[2] = molecular target: T2, His-tagged human PD-L1 (human, UniProt Q9NZQ7 19-238, limits assumed); assay: ELISA, plate coated with PDL1-His at 0.5 ug/ml, detection with HRP mouse anti-human IgG Fc, OD 450nm
T2 construct: also called Human PD-L1 protein; Human PDL1-His; not shown: His tag
T2 sequence (Q9NZQ7 19-238 limits assumed): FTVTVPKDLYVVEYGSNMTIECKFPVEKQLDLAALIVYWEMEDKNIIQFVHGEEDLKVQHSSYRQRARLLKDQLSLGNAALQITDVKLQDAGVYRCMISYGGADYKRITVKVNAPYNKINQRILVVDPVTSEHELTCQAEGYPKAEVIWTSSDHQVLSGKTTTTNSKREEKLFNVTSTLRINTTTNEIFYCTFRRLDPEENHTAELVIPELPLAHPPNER
Protocol: (§1) Human, cyno, rat and mouse PDL1-His proteins were coated at 0.5 μg/ml at 4° C. overnight. […] The plates were washed and then incubated with HRP conjugated mouse anti-human IgG Fc antibody followed by development with TMB substrate and analyzed by spectrophotometer at OD 450 nm.

[3] = molecular target: cyno PDL1-His (cyno, UniProt G7PSE7 19-238); assay: as above
Chain of cyno PDL1-His (G7PSE7 entry or part of it limits assumed): as the sequence (Q9NZQ7 19-238 limits assumed) above, with A33T, A34S, S62N, R68Q, Q82R, F173L, T185A, T192I, H215L counted along it
Protocol: as §1

[4] = molecular target: T3, mouse PDL1-His (mouse, UniProt Q9EP73 19-238, limits assumed); assay: ELISA, PDL1-His coated at 0.5 µg/ml
T3 construct: not shown: His tag
T3 sequence (Q9EP73 19-238 limits assumed): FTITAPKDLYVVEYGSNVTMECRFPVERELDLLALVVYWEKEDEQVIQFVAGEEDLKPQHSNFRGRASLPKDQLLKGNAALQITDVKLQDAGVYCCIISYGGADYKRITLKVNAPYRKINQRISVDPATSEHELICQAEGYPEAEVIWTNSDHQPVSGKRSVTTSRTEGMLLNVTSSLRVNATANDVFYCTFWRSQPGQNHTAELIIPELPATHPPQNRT
Protocol: as §1

[5] = molecular target: rat PDL1-His (rat, UniProt D4AE25 19-239); assay: ELISA, PDL1-His coated at 0.5 µg/ml
Chain of rat PDL1-His (D4AE25 entry or part of it limits assumed): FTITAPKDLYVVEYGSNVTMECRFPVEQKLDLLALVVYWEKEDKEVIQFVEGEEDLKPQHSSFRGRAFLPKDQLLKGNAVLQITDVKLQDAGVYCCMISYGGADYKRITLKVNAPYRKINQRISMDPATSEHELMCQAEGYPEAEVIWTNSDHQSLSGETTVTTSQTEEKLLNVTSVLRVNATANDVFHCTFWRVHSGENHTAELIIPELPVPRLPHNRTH
Protocol: as §1

[6] = molecular target: T2, His-tagged human PD-L1; assay: Biacore T200 SPR, B12-01 captured on a protein A chip, human PD-L1-His injected at 25 nM-1.56 nM
Excerpt: (§2) The ligand was allowed to associate for 120 s and dissociate for 600 s.

[7] = molecular target: T1, human PD-L1 on Raji cells; assay: cell-based or functional assay
[8] = molecular target: T2, His-tagged human PD-L1; assay: SPR, Biacore T200; B12-01 captured on protein A chip, human PD-L1 25 nM-1.56 nM injected
Excerpt: as §2

T1 sequence (Q9NZQ7 19-290): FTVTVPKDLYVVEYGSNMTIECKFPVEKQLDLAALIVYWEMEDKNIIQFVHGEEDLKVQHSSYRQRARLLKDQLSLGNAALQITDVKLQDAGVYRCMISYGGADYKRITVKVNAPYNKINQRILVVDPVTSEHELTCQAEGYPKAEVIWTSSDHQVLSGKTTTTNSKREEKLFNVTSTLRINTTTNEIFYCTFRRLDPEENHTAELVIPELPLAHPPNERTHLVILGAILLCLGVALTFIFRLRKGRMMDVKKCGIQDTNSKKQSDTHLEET

B1: B12-01 (antibody, V domains shown)
VH: QVQLLESGGGLVQPGGSLRLSCAASGFTFSSYWMSWVRQAPGKGLEWVANIKQDGSEKYYVDSVKGRFTISRDNAKNSLYLQMNSLRAEDTAVYYCARVALWDDAFDIWGQGTMVTVSS
VL: DIQMTQSPSTLSASVGDRVIITCRASRGISSWLAWYQQKPGKAPNLLISKASSLESGVPSRFSGSGSGTDFTLTISSLQPEDFATYYCQQSSSIPLTFGGGTKVEIK
notes: Variant of B12 with serine at the C-terminus of VH and DIQM at the N-terminus of VL; captured on protein A and detected with anti-human IgG Fc, so a human IgG; also called B12-01 antibody
EC50 [1]: 0.14 nM
EC50 (read off the curve) [2]: ~0.03 nM
EC50 (read off the curve) [3]: ~0.04 nM
binding result [4]: no binding
binding result [5]: no binding
koff [6]: 0.000795 s⁻¹
kon [6]: 838000 M⁻¹ s⁻¹
EC50, NF-AT-luciferase activity, PD-1 Jurkat cells with Raji-PD-L1 cells [7]: 0.098 nM
Kd [8]: 0.948 nM
